Laboratory results: US20090081207A1 (published 2009)
Values joined by “and” are separate entries in the source; they are usually repeats but may differ in a detail not shown here. Identical values can stand only once. Each block holds one binder with its values, some of them ahead of it.

Legend:
human α5β1 integrin [1] = target: T1, human α5β1 integrin (human, UniProt P08648 42-1049; P05556 21-798); test: cell-based or functional assay
human α5β1 integrin [2] = target: T1, human α5β1 integrin; test: FACS titration on α5β1-positive HUVEC cells, monovalent Fab
[3] = target: T2, β1-integrin chain on HT29 wt cells (α5-chain negative) (human, UniProt P05556 21-798); test: FACS, HT29 cells (α5-chain negative)
T2 construct: whole, on cells; Negative cell control: β1 present at high density, α5 absent
T2 sequence (P05556 21-798): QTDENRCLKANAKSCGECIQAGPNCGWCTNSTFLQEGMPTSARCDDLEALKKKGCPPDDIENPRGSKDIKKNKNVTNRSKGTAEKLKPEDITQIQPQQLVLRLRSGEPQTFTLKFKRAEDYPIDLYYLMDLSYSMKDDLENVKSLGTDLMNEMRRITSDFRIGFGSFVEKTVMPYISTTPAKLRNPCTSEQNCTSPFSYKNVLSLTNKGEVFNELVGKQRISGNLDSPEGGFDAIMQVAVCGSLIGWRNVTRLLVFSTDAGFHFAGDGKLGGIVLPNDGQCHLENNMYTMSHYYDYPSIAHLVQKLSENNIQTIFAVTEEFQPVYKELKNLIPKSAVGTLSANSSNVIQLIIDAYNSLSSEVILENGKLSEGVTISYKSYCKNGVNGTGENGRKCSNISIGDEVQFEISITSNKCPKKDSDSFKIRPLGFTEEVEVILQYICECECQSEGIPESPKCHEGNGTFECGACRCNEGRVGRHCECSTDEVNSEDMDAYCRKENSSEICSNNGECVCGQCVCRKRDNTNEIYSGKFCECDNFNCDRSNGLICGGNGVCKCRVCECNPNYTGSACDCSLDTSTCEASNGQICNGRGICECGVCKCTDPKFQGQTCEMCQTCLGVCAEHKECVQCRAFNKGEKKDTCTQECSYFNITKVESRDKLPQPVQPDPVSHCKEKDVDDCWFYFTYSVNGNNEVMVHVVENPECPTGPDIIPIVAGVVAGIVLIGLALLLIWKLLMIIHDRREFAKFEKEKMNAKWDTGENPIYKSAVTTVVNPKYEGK

human α5β1 integrin [4] = target: T1, human α5β1 integrin; test: FACS titration on α5β1-positive HUVEC cells, IgG
human α5β1 integrin [5] = target: T1, human α5β1 integrin; test: cell-based or functional assay; remark: listed apart in the source
[6] = target: T2, β1-integrin chain on HT29 wt cells …; test: immunoprecipitation from NP40 lysate of surface-biotinylated HT29 wt cells; streptavidin-AP blot
Experimental: Surface-biotinylated NP40-lysates of HT29α5 and HT29 wt were incubated with Fab coupled to magnetic Dyna beads. The immunoprecipitates were transferred to PVDF-membranes and analysed with streptavidin alkaline phosphatase (AP).
IIA1 was used as a reference antibody. After intensive washing the precipitates were boiled in SDS-PAGE sample buffer under reducing conditions, blotted to PVDF-membranes and probed with streptavidine-AP. All anti-α5β1 integrin antibodies specifically precipitated a protein double kband of […] which corresponds to the expected molecular weight of the integrin chains α5 and β1 (FIG. 11) and was not found in the HT29 wt cell lysate. The same double band was found with IIA1.

human α5β1 integrin [7] = target: T1, human α5β1 integrin; test: cell-based or functional assay; remark: listed apart in the source

T1 sequence (P08648 42-1049, chain 1 of 2): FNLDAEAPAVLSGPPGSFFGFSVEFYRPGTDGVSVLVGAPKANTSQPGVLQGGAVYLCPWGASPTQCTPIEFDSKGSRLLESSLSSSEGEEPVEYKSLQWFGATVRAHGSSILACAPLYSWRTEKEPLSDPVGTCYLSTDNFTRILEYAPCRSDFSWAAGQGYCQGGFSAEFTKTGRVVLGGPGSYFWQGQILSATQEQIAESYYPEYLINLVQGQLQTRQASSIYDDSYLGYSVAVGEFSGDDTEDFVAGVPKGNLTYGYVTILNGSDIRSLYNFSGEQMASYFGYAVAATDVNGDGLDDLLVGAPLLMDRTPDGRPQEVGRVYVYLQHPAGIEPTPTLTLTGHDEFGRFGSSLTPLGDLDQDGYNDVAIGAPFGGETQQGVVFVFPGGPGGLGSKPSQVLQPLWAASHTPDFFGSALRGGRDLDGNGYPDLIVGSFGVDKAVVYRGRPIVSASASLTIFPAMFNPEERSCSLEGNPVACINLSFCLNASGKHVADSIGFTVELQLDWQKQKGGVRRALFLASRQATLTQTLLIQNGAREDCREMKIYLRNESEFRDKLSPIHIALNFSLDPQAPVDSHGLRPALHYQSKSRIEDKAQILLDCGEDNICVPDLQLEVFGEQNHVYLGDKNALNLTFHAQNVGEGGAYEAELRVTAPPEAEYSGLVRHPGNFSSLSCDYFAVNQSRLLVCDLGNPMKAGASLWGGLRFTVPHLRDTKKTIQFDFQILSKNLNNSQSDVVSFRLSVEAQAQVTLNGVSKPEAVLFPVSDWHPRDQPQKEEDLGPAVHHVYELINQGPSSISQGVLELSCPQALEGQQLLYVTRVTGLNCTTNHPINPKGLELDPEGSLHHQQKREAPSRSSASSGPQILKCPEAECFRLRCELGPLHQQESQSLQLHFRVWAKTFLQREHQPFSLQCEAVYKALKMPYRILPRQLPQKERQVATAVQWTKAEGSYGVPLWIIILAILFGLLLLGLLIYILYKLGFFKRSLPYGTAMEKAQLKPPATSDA
T1 sequence (P05556 21-798, chain 2 of 2): as the sequence (P05556 21-798) above

IC50, XTT-proliferation assay on HUVEC (human α5β1 integrin [1]): 11.2 µg/ml and 225 nM
Kd (human α5β1 integrin [2]): 7.5 nM
B1: MOR04624 Fab (Fab, V domains shown)
VH: QVQLVESGGGLVQPGGSLRLSCAASGFTFSSYGMSWVRQAPGKGLEWVSSISYSDSNTYYADSVKGRFTISRDNSKNTLYLQMNSLRAEDTAVYYCARGLGDYGHHHGLSGIFDYWGQGTLVTVSS
VL: DIQMTQSPSSLSASVGDRVTITCRASQGISSNLNWYQQKPGKAPKLLIYAASNLQSGPSRFSGSGSGTDFTLTISSLQPEDFAVYYCQQYSDQSYTFGQGTKVEIKR
notes: HuCAL GOLD monovalent Fab, kappa

binding result [3]: no binding
Kd (human α5β1 integrin [4]): 3.1 nM
B2: MOR04624 IgG1 (antibody, V domains shown)
VH: QVQLVESGGGLVQPGGSLRLSCAASGFTFSSYGMSWVRQAPGKGLEWVSSISYSDSNTYYADSVKGRFTISRDNSKNTLYLQMNSLRAEDTAVYYCARGLGDYGHHHGLSGIFDYWGQGTLVTVSS
VL: DIQMTQSPSSLSASVGDRVTITCRASQGISSNLNWYQQKPGKAPKLLIYAASNLQSGPSRFSGSGSGTDFTLTISSLQPEDFAVYYCQQYSDQSYTFGQGTKVEIKR
notes: Human IgG1 kappa (MorphoSys HuCAL IgG Vector Kit); also called IgG1 MOR04624

IC50, transwell migration of HUVEC towards fibronectin (human α5β1 integrin [5]): 1 µg/mL
B3: MOR04974 IgG4-Pro (antibody, V domains shown)
VH: QVQLVESGGGLVQPGGSLRLSCAASGFTFSSYGMSWVRQAPGKGLEWVSGIRAKQSGYATDYAAPVKGRFTISRDNSKNTLYLGMNSLRAEDTAVYYCARGLGDYGHHHGLSGIFDYWGQGTLVTVSS
VL: DIQMTGSPSSLSASVGDRVTITCRASQGISSNLNWYQQKPGKAPKLLIYAASNLQSGPSRFSGSGSGTDFTLTISSLQPEDFATYYCQQYASPRQTFGQGTKVEIKR

IC50, XTT-proliferation assay on HUVEC (human α5β1 integrin [1]): 0.06 µg/ml and 1.2 nM
binding result [6]: no binding
B4: MOR04974 Fab (Fab, V domains shown)
VH: QVQLVESGGGLVQPGGSLRLSCAASGFTFSSYGMSWVRQAPGKGLEWVSGIRAKQSGYATDYAAPVKGRFTISRDNSKNTLYLQMNSLRAEDTAVYYCARGLGDYGHHHGLSGIFDYWGQGTLVTVSS
VL: DIQMTQSPSSLSASVGDRVTITCRASQGISSNLNWYQQKPGKAPKLLIYAASNLQSGPSRFSGSGSGTDFTLTISSLQPEDFATYYCQQYASPRQTFGQGTKVEIKR

IC50, transwell migration of HUVEC towards fibronectin (human α5β1 integrin [5]): 1 µg/mL
B5: MOR04977 IgG4-Pro (antibody, V domains shown)
VH: QVQLVESGGGLVQPGGSLRLSCAASGFTFSSYGMSWVRQAPGKGLEWVSFIEPKWRGGATHYAASVKGRFTISRDNSKNTLYLQMNSLRAEDTAVYYCARGLGDYGHHHGLSGIFDYWGQGTLVTVSS
VL: DIQMTQSPSSLSASVGDRVTITCRASQGISSNLNWYQQKPGKAPKLLIYAASNLQSGPSRFSGSGSGTDFTLTISSLQPEDFATYYCQQYSSNPQTFGQGTKVEIKR

IC50, transwell migration of HUVEC towards fibronectin (human α5β1 integrin [5]): 1.5 µg/mL
B6: MOR04975 IgG4-Pro (antibody, V domains shown)
VH: QVQLVESGGGLVQPGGSLRLSCAASGFTFSSYGMSWVRQAPGKGLEWVSGIRAKQSGYATDYAAPVKGRFTISRDNSKNTLYLGMNSLRAEDTAVYYCARGLGDYGHHHGLSGIFDYWGQGTLVTVSS
VL: DIQMTQSPSSLSASVGDNVTITCRASQGISSNLNWYQQKPGKAPKLLIYAASNLQSGPSRFSGSGSGTDFTLTISSLQPEDFATYYCQQYEFGIQTFGQGTKVEIKR

IC50, XTT-proliferation assay on HUVEC (human α5β1 integrin [1]): 0.09 µg/ml and 1.8 nM
binding result [6]: no binding
B7: MOR04975 Fab (Fab, V domains shown)
VH: QVQLVESGGGLVQPGGSLRLSCAASGFTFSSYGMSWVRQAPGKGLEWVSGIRAKQSGYATDYAAPVKGRFTISRDNSKNTLYLQMNSLRAEDTAVYYCARGLGDYGHHHGLSGIFDYWGQGTLVTVSS
VL: DIQMTQSPSSLSASVGDRVTITCRASQGISSNLNWYQQKPGKAPKLLIYAASNLQSGPSRFSGSGSGTDFTLTISSLQPEDFATYYCQQYEFGIQTFGQGTKVEIKR
notes: also called MQR04975

EC50, inhibition of HUVEC adhesion to fibronectin (human α5β1 integrin [7]): 0.5 µg/ml and 3.3 nM
binding result [3]: no binding
B8: MOR04985 IgG1 (antibody, V domains shown)
VH: QVQLVESGGGLVQPGGSLRLSCAASGFTFSSYGMSWVRQAPGKGLEWVSGIRAKQSGYATDYAAPVKGRFTISRDNSKNTLYLQMNSLRAEDTAVYYCARGLGDYGHHHGLSGIFDYWGQGTLVTVSS
VL: DIQMTQSPSSLSASVGDRVTITCRASQGISSNLNWYQQKPGKAPKLLIYAASNLQSGPSRFSGSGSGTDFTLTISSLQPEDFAVYYCQQYSDQSYTFGQGTKVEIKR

EC50, inhibition of HUVEC adhesion to fibronectin (human α5β1 integrin [7]): 0.4 µg/ml and 2.6 nM
binding result [3]: no binding
B9: MOR04977 IgG1 (antibody, V domains shown)
VH: QVQLVESGGGLVQPGGSLRLSCAASGFTFSSYGMSWVRQAPGKGLEWVSFIEPKWRGGATHYAASVKGRFTISRDNSKNTLYLQMNSLRAEDTAVYYCARGLGDYGHHHGLSGIFDYWGQGTLVTVSS
VL: DIQMTQSPSSLSASVGDRVTITCRASQGISSNLNWYQQKPGKAPKLLIYAASNLQSGPSRFSGSGSGTDFTLTISSLQPEDFATYYCQQYSSNPQTFGQGTKVEIKR

IC50, XTT-proliferation assay on HUVEC (human α5β1 integrin [1]): 0.09 µg/ml and 1.8 nM
binding result [6]: no binding
B10: MOR04985 Fab (Fab, V domains shown)
VH: QVQLVESGGGLVQPGGSLRLSCAASGFTFSSYGMSWVRQAPGKGLEWVSGIRAKQSGYATDYAAPVKGRFTISRDNSKNTLYLQMNSLRAEDTAVYYCARGLGDYGHHHGLSGIFDYWGQGTLVTVSS
VL: DIQMTQSPSSLSASVGDRVTITCRASQGISSNLNWYQQKPGKAPKLLIYAASNLQSGPSRFSGSGSGTDFTLTISSLQPEDFAVYYCQQYSDQSYTFGQGTKVEIKR

IC50, XTT-proliferation assay on HUVEC (human α5β1 integrin [1]): 0.09 µg/ml and 1.9 nM
binding result [6]: no binding
B11: MOR04977 Fab (Fab, V domains shown)
VH: QVQLVESGGGLVQPGGSLRLSCAASGFTFSSYGMSWVRQAPGKGLEWVSFIEPKWRGGATHYAASVKGRFTISRDNSKNTLYLQMNSLRAEDTAVYYCARGLGDYGHHHGLSGIFDYWGQGTLVTVSS
VL: DIQMTQSPSSLSASVGDRVTITCRASQGISSNLNWYQQKPGKAPKLLIYAASNLQSGPSRFSGSGSGTDFTLTISSLQPEDFATYYCQQYSSNPQTFGQGTKVEIKR

EC50, inhibition of HUVEC adhesion to fibronectin (human α5β1 integrin [7]): 0.33 µg/ml and 2 nM
binding result [3]: no binding
B12: MOR04975 IgG1 (antibody, V domains shown)
VH: QVQLVESGGGLVQPGGSLRLSCAASGFTFSSYGMSWVRQAPGKGLEWVSGIRAKQSGYATDYAAPVKGRFTISRDNSKNTLYLQMNSLRAEDTAVYYCARGLGDYGHHHGLSGIFDYWGQGTLVTVSS
VL: DIQMTQSPSSLSASVGDRVTITCRASQGISSNLNWYQQKPGKAPKLLIYAASNLQSGPSRFSGSGSGTDFTLTISSLQPEDFATYYCQQYEFGIQTFGQGTKVEIKR

Kd (human α5β1 integrin [2]): 0.9 nM
B13: MOR04055 Fab (Fab, V domains shown)
VH: QVQLVESGGGLVQPGGSLRLSCAASGFTFSNYAMNWVRQAPGKGLEWVSRISYSGSDTYYADSVKGRFTISRDNSKNTLYLQMNSLRAEDTAVYYCAREGEFGFMYSTLVFDSWGQGTLVTVSS
VL: DIELTQPPSVSVAPGQTARISCSGDSIGEQYAHWYQQKPGQAPVLVIYDDNKRPSGIPERFSGSNSGNTATLTISGTQAEDEADYYCGSYTLTNTASVFGGGTKLTVLG

IC50, XTT-proliferation assay on HUVEC (human α5β1 integrin [1]): 0.21 µg/ml and 4.3 nM
binding result [6]: no binding
B14: MOR04971 Fab (Fab, V domains shown)
VH: QVQLVESGGGLVQPGGSLRLSCAASGFTFSNYAMNWVRQAPGKGLEWVSAIHDNGHTYYPDSVKGRFTISRDNSKNTLYLQMNSLRAEDTAVYYCAREGEFGFMYSTLVFDSWGQGTLVTVSS
VL: DIELTQPPSVSVAPGQTARISCSGDSIGEQYAHWYQQKPGQAPVLVIYDDNKRPSGIPERFSGSNSGNTATLTISGTQAEDEADYYCSSYTYSSDASVFGGGTKLTVLG

Kd (human α5β1 integrin [4]): 0.5 nM
B15: MOR04055 IgG (antibody, V domains shown)
VH: QVQLVESGGGLVQPGGSLRLSCAASGFTFSNYAMNWVRQAPGKGLEWVSRISYSGSDTYYADSVKGRFTISRDNSKNTLYLQMNSLRAEDTAVYYCAREGEFGFMYSTLVFDSWGQGTLVTVSS
VL: DIELTQPPSVSVAPGQTARISCSGDSIGEQYAHWYQQKPGQAPVLVIYDDNKRPSGIPERFSGSNSGNTATLTISGTQAEDEADYYCGSYTLTNTASVFGGGTKLTVLG
